The record followed here is article PMC3589475, “Large-Scale Functional Purification of Recombinant HIV-1 Capsid” (PLoS ONE, 2013).

A value given as a limit tells only on which side of the number the result lay.

This assay has as its target cross-linked CA 4Mu hexamer (HIV-1 (NL4-3 strain)). The experiment in a line: SPR; Biacore T100; minimally biotinylated WT CA or CA 4Mu hexamer captured on neutravidin on CM5 chips, CAI injected (100 µM and 3-fold dilutions); 50 mM sodium phosphate pH 7.5, 150 mM NaCl, 0.01% P20; steady-state one-site fit. For orientation: In SPR one partner is held on a chip, and binding of the other changes the refractive index at the surface.

Turning to ITFEDLLDYYGP [CAI peptide], the dissociation constant (Kd) (usually a measure of binding affinity in units of concentration) is over 100 µM.
